This note sets out measurements from patent US20030055219A1 (MYRIAD GENETICS, published 2003).

The target in assay [1] is T1, C-NAP1 amino acids 1000-1300 (two-hybrid bait, fused to the Gal4 DNA binding domain) (yeast, UniProt P04386 1-147; Q9BV73 1000-1300).
T1 construct: range 1-147;range 1000-1300; Bait was expressed in yeast as a C-terminal fusion to Gal4 DBD 1-147 from vector pGBTQ
As to the kind of experiment: yeast two-hybrid, C-NAP1 fragment as Gal4 DBD bait, human brain library prey. An excerpt: (§1) In these yeast cells, the bait is produced as a C-terminal fusion protein with the DNA binding domain of the transcription factor Gal4 (amino acids 1 to 147). A total human brain (person) cDNA library cloned into the yeast expression vector pACT2 was purchased from Clontech (human brain […] cDNA, cat. #HL4004AH), transformed into the yeast strain J692 (genotype of this strain: Mat α, ade2, his3, leu2, trp1, URA3::GAL1-lacZ LYS2::GAL1-HIS3 gal4del ga18Odel cyhR2), and selected for the ability to drive leucine synthesis. In these yeast cells, each cDNA is expressed as a fusion protein with the transcription activation domain of the transcription factor Gal4 (amino acids 768 to 881) and a 9 amino acid hemagglutinin epitope tag. J693 cells (Mat a type) expressing the bait were then mated with J692 cells (Mat a type) expressing proteins from the brain library. The resulting diploid yeast cells expressing proteins interacting with the bait protein were selected for the ability to synthesize tryptophan, leucine, histidine, and β-galactosidase. DNA was prepared from each clone, transformed by electroporation into E. coli strain KC8 (Clontech KC8 electrocompetent cells, cat. #C2023-1), and the cells were selected on ampicillin-containing plates in the absence of either tryptophane (selection for the bait plasmid) or leucine (selection for the brain library plasmid). […]

For assay [2], the target named is T1, C-NAP1 amino acids 1000-1300 …. As to the kind of experiment: yeast two-hybrid, bait C-NAP1 AA 1000-1300, prey AA 184-246.
Text: as §1, with “A” for “In these yeast cells, the bait is produced as a C-terminal fusion protein with the DNA binding domain of the transcription factor Gal4 (amino acids 1 to 147). A”, “plasmid). DNA for both plasmids was prepared and sequenced by di-deoxynucleotide chain termination method.” for “plasmid).”

Assay [3] deals with T2, C-NAP1 amino acids 1-300 (two-hybrid bait, fused to the Gal4 DNA binding domain) (yeast, UniProt P04386 1-147; Q9BV73 1-300).
T2 construct: range 1-147;range 1-300; Bait cDNA was made by PCR from brain cDNA; It was expressed in yeast as a C-terminal fusion to Gal4 DBD 1-147 from vector pGBTQ
Description: yeast two-hybrid, bait C-NAP1 AA 1-300, prey AA 2-76.
Text: as §1, with “A” for “In these yeast cells, the bait is produced as a C-terminal fusion protein with the DNA binding domain of the transcription factor Gal4 (amino acids 1 to 147). A”, “plasmid). DNA for both plasmids was prepared and sequenced by di-deoxynucleotide chain termination method.” for “plasmid).”

The target in assay [4] is T3, C-NAP1 amino acids 250-550 (two-hybrid bait, fused to the Gal4 DNA binding domain) (yeast, UniProt P04386 1-147; Q9BV73 250-550).
T3 construct: range 1-147;range 250-550; Bait was expressed in yeast as a C-terminal fusion to Gal4 DBD 1-147 from vector pGBTQ
Description: yeast two-hybrid, bait C-NAP1 AA 250-550, prey AA 1314-1575.
Text: as §1, with “A” for “In these yeast cells, the bait is produced as a C-terminal fusion protein with the DNA binding domain of the transcription factor Gal4 (amino acids 1 to 147). A”, “plasmid). DNA for both plasmids was prepared and sequenced by di-deoxynucleotide chain termination method.” for “plasmid).”

The target in assay [5] is T1, C-NAP1 amino acids 1000-1300 …. As to the kind of experiment: yeast two-hybrid, bait C-NAP1 AA 1000-1300, prey AA 7-283.
Text: as §1, with “A” for “In these yeast cells, the bait is produced as a C-terminal fusion protein with the DNA binding domain of the transcription factor Gal4 (amino acids 1 to 147). A”, “plasmid). DNA for both plasmids was prepared and sequenced by di-deoxynucleotide chain termination method.” for “plasmid).”

B1: FIP-2 amino acids 302-577 (two-hybrid prey clone, fused to the Gal4 activation domain) (other, yeast;human, UniProt P04386 768-881, looked up, not shown: small tags and cut ends)
chain: ANFNQSGNIADSSLSFTFTNSSNGPNLITTQTNSQALSQPIASSNVHDNFMNNEITASKIDDGNNSKPLSPGWTDQTAYNAFGITTGMFNTTTMDDVYNYLFDDEDTPPNPKKELNLQVTSLFKELQEAHTKLSEAELMKKRLQEKCQALERKNSAIPSELNEKQELVYTNKKLELQVESMLSEIKMEQAKTEDEKSKLTVLQMTHNKLLQEHNNALKTIEELTRKESEKVDRAVLKELSEKLELAEKALASKQLQMDEMKQTIAKQEEDLETMTILRAQMEVYCSDFHAERAAREKIHEEKEQLALQLAVLLKENDAFEDGGRQSLMEMQSRHGARTSDSDQQAYLVQRGAEDRDWRQQRNIPIHSCPKCGEVLPDIDTLQIHVMDCII
notes: Prey came from the Clontech human brain library in pACT2; The clone 'included' these residues
Take B1: the binding result in assay [1] was “binds”.

B2: BAP31 amino acids 184-246 (two-hybrid prey clone, fused to the Gal4 activation domain) (other, yeast;human, UniProt P04386 768-881, looked up, not shown: small tags and cut ends)
chain: ANFNQSGNIADSSLSFTFTNSSNGPNLITTQTNSQALSQPIASSNVHDNFMNNEITASKIDDGNNSKPLSPGWTDQTAYNAFGITTGMFNTTTMDDVYNYLFDDEDTPPNPKKELKADLQKLKDELASTKQKLEKAENQVLAMRKQSEGLTKEYDRLLEEHAKLQAAVDGPMDKKEE
notes: range 768-881;range 184-246; The printed GenBank number 'U5211' looks truncated
As to B2, the binding result in assay [2] is on record as “binds”.

B3: HSBP1 amino acids 2-76 (two-hybrid prey clone, fused to the Gal4 activation domain) (other, yeast;human, UniProt P04386 768-881, looked up, not shown: small tags and cut ends)
chain: ANFNQSGNIADSSLSFTFTNSSNGPNLITTQTNSQALSQPIASSNVHDNFMNNEITASKIDDGNNSKPLSPGWTDQTAYNAFGITTGMFNTTTMDDVYNYLFDDEDTPPNPKKEAETDPKTVQDLTSVVQTLLQQMQDKFQTMSDQIIGRIDDMSSRIDDLEKNIADLMTQAGVEELESENKIPATQKS
notes: range 768-881;range 2-76
With B3, the binding result in assay [3] is on record as “binds”.

B4: IQGAP2 amino acids 1314-1575 (two-hybrid prey clone, fused to the Gal4 activation domain) (other, yeast;human, UniProt P04386 768-881, looked up, not shown: small tags and cut ends)
chain: ANFNQSGNIADSSLSFTFTNSSNGPNLITTQTNSQALSQPIASSNVHDNFMNNEITASKIDDGNNSKPLSPGWTDQTAYNAFGITTGMFNTTTMDDVYNYLFDDEDTPPNPKKEQPGNTLTEILETPATAQQEVDHATDMVSRAMIDSRTPEEMKHSQSMIEDAQLPLEQKKRKIQRNLRTLEQTGHVSSENKYQDILNEIAKDIRNQRIYRKLRKAELAKLQQTLNALNKKAAFYEEQINYYDTYIKTCLDNLKRKNTRRSIKLDGKGEPKGAKRAKPVKYTAAKLHEKGVLLDIDDLQTNQFKNVTFDIIATEDVGIFDVRSKFLGVEMEKVQLNIQDLLQMQYEGVAVMKMFDKVKVNVNLLIYLLNKKFYGK
B4: in assay [4], the binding result is “binds”.

B5: KIAA0174 amino acids 7-283 (two-hybrid prey clone, fused to the Gal4 activation domain) (other, yeast;human, UniProt P04386 768-881, looked up, not shown: small tags and cut ends)
chain: ANFNQSGNIADSSLSFTFTNSSNGPNLITTQTNSQALSQPIASSNVHDNFMNNEITASKIDDGNNSKPLSPGWTDQTAYNAFGITTGMFNTTTMDDVYNYLFDDEDTPPNPKKEKAERLRVNLRLVINRLKLLEKKKTELAQKARKEIADYLAAGKDERARIRVEHIIREDYLVEAMEILELYCDLLLARFGLIQSMKELDSGLAESVSTLIWAAPRLQSEVAELKIVADQLCAKYSKEYGKLCRTNQIGTVNDRLMHKLSVEAPPKILVERYLIEIAKNYNVPYEPDSVVMAEAPPGVETDLIDVGFTDDVKKGGPGRGGSGGFTAPVGGPDGTVPMPMPMPMPSANTPFSYPLPKGPSDFNGLPMGTYQAFPNIHPPQIPATPPSYESV
notes: range 768-881;range 7-283
Turning to B5, the binding result in assay [5] was “binds”.
